Results: publication PMC7772773, “HTR6 and SSTR3 ciliary targeting relies on both IC3 loops and C-terminal tails” (Life Science Alliance, 2020)

Columns and labels:
[1] = molecular target: T1, CD8α (aa 1–206)-(HTR6-CT)-BioID2-HA ( | mouse, UniProt P01732 22-206; Q9R1C8 326-440); experiment: proximity labelling; BioID2 proximity biotinylation in HEK293T cells cotransfected with EGFP-TEV-Stag-TULP3 (or S-tagged TULP3-NTD or -CTD) and CD8α(1–206)-(IC3 or CT of a GPCR)-BioID2-HA; 50 μM biotin for the last 16 h; TULP3 purified from lysate by tandem purification (GFP-Trap, TEV digestion, S-protein agarose); its biotinylation detected with NeutrAvidin-HRP, relative to total TULP3 and normalised to the β2AR …; details: partners not purified
T1 construct: signal peptide in the construct; CD8α, extracellular and transmembrane regions, aa 1–206; serotonin receptor 6 (HTR6), mouse, C-terminal tail (HTR6-CT, aa 326–440); also called HTR6-CT(WT); wild-type HTR6-CT; source: HEK293T, cotransfected, in cells; not shown: BioID2, C-terminal, kept; HA, C-terminal, kept

[2] = molecular target: T2, CD8α (aa 1–206)-(SSTR3-CT)-BioID2-HA ( | mouse, UniProt P01732 22-206; P30935 326-428); experiment: as above; details: partners not purified
T2 construct: signal peptide in the construct; CD8α, extracellular and transmembrane regions, aa 1–206; somatostatin receptor 3 (SSTR3), mouse, C-terminal tail (SSTR3-CT, aa 326–428); source: HEK293T, cotransfected, in cells; not shown: BioID2, C-terminal, kept; HA, C-terminal, kept
T2 sequence (P01732 22-206, tags or fused parts left off): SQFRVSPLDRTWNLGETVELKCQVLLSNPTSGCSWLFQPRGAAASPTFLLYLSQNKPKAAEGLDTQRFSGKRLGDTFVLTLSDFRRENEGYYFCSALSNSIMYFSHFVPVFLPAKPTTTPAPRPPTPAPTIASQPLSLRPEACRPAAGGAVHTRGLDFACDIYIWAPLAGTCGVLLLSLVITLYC

T1 sequence (P01732 22-206, tags or fused parts left off): as above

fold biotinylated TULP3 over β2AR-CT control [1]: 4 fold | fold biotinylated TULP3 over β2AR-CT control [2]: 20 fold
B1: EGFP-TEV-Stag-TULP3 (natural protein, UniProt O75386 1-442, looked up)
chain: MEASRCRLSPSGDSVFHEEMMKMRQAKLDYQRLLLEKRQRKKRLEPFMVQPNPEARLRRAKPRASDEQTPLVNCHTPHSNVILHGIDGPAAVLKPDEVHAPSVSSSVVEEDAENTVDTASKPGLQERLQKHDISESVNFDEETDGISQSACLERPNSASSQNSTDTGTSGSATAAQPADNLLGDIDDLEDFVYSPAPQGVTVRCRIIRDKRGMDRGLFPTYYMYLEKEENQKIFLLAARKRKKSKTANYLISIDPVDLSREGESYVGKLRSNLMGTKFTVYDRGICPMKGRGLVGAAHTRQELAAISYETNVLGFKGPRKMSVIIPGMTLNHKQIPYQPQNNHDSLLSRWQNRTMENLVELHNKAPVWNSDTQSYVLNFRGRVTQASVKNFQIVHKNDPDYIVMQFGRVADDVFTLDYNYPLCAVQAFGIGLSSFDSKLACE
notes: TULP3, ciliary trafficking adapter; the printed limit of its C-terminal domain (aa 184–442) points to a protein of 442 aa; A TEV site lies between EGFP and the S-tag; EGFP is cut off only after the first immunoprecipitation, that is after the labelling in cells; also called S-tagged TULP3; not shown: EGFP, N-terminal, kept; S-tag, N-terminal, kept
